Patent publication US20240009242A1 (STARKAGE THERAPEUTICS, published 2024)
Positions count from the first letter of the chain named. Names and notes keep the numbering of the source. Ends that are not written are not given here.

Legend:
[1] = target: human DPP4 on the surface of fibroblasts (human) (UniProt P27487); assay: flow cytometry on NHLF (normal human lung fibroblasts); 0.5 µg per test; anti-6xHis tag PE secondary
[2] = target: human DPP4 on the surface of fibroblasts (human) (UniProt P27487); assay: flow cytometry on Wi-38 fibroblasts (PDL<20); 0.5 µg per test; anti-6xHis tag PE secondary
[3] = target: human DPP4 on the surface of fibroblasts (human) (UniProt P27487); assay: flow cytometry on untreated GM21808 fibroblasts; 0.5 µg per test; anti-6xHis tag PE secondary
[4] = target: human DPP4 on the surface of fibroblasts (human) (UniProt P27487); assay: flow cytometry on GM21808 fibroblasts treated with etoposide; 0.5 µg per test; anti-6xHis tag PE secondary
[5] = target: human DPP4 on the surface of fibroblasts (human) (UniProt P27487); assay: flow cytometry on COPD human lung fibroblasts; 0.5 µg per test; anti-6xHis tag PE secondary
[6] = target: human DPP4 on the surface of fibroblasts (human) (UniProt P27487); assay: flow cytometry on IPF human lung fibroblasts; 0.5 µg per test; anti-6xHis tag PE secondary
[7] = target: T1, human DEP1 on the surface of fibroblasts (human) (UniProt Q12913); assay: flow cytometry on NHLF (normal human lung fibroblasts); 0.5 µg per test; anti-6xHis tag PE secondary
T1 sequence: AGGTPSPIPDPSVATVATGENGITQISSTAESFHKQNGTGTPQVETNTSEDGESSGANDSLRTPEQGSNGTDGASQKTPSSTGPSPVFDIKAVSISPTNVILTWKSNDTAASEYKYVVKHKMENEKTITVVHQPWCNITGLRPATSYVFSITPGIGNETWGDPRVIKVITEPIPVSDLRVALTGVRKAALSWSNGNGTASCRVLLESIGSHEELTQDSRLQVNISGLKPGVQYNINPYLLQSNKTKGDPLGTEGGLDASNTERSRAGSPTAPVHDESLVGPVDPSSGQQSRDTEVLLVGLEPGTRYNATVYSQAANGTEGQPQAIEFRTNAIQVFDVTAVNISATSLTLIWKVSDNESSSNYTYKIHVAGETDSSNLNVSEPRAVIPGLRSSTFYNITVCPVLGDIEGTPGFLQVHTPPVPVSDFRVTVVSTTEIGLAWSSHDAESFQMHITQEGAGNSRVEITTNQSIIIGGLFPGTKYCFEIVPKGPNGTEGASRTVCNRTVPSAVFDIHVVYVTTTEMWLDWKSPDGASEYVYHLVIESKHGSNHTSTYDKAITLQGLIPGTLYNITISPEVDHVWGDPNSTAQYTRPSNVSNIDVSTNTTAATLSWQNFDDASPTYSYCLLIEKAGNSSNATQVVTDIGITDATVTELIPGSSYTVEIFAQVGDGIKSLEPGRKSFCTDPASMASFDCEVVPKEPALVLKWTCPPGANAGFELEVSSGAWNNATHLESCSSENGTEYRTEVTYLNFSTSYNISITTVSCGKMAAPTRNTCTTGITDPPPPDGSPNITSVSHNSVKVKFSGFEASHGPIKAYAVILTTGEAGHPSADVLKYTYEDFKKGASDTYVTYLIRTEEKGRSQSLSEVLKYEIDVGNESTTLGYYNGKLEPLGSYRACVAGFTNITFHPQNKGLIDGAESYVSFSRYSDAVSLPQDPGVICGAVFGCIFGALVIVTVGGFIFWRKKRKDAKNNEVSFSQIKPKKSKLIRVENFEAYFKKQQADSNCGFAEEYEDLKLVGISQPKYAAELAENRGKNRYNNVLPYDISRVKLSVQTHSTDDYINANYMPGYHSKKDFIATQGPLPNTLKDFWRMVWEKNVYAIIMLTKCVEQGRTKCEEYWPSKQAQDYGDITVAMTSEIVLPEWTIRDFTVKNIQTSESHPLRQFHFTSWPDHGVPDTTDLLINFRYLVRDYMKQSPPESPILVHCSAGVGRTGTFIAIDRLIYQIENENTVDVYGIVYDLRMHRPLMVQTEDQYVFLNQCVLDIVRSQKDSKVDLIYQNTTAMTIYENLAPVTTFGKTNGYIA

[8] = target: T1, human DEP1 on the surface of fibroblasts (human); assay: flow cytometry on Wi-38 fibroblasts (PDL<20); 0.5 µg per test; anti-6xHis tag PE secondary
[9] = target: T1, human DEP1 on the surface of fibroblasts (human); assay: flow cytometry on untreated GM21808 fibroblasts; 0.5 µg per test; anti-6xHis tag PE secondary
[10] = target: T1, human DEP1 on the surface of fibroblasts (human); assay: flow cytometry on GM21808 fibroblasts treated with etoposide; 0.5 µg per test; anti-6xHis tag PE secondary
[11] = target: T1, human DEP1 on the surface of fibroblasts (human); assay: flow cytometry on COPD human lung fibroblasts; 0.5 µg per test; anti-6xHis tag PE secondary
[12] = target: T1, human DEP1 on the surface of fibroblasts (human); assay: flow cytometry on IPF human lung fibroblasts; 0.5 µg per test; anti-6xHis tag PE secondary
[13] = target: T2, hDEP1 Peptide #4 (human, also: conjugated to BSA); assay: ELISA, soluble scFv produced in microtiter plate
T2 construct: also called hDEP1 Peptide #4/BSA
T2 peptide: ADVLKYTYEDFKKGASDT
Protocol: 96 isolated clones from the second, third and fourth rounds of panning were hand-picked and used to produce the respective soluble scFv in microtiter plate. Each clone was then tested in ELISA against hDEP1 Peptide #4/BSA.

Sequence of human DPP4 on the surface of fibroblasts (human) (P27487 whole entry): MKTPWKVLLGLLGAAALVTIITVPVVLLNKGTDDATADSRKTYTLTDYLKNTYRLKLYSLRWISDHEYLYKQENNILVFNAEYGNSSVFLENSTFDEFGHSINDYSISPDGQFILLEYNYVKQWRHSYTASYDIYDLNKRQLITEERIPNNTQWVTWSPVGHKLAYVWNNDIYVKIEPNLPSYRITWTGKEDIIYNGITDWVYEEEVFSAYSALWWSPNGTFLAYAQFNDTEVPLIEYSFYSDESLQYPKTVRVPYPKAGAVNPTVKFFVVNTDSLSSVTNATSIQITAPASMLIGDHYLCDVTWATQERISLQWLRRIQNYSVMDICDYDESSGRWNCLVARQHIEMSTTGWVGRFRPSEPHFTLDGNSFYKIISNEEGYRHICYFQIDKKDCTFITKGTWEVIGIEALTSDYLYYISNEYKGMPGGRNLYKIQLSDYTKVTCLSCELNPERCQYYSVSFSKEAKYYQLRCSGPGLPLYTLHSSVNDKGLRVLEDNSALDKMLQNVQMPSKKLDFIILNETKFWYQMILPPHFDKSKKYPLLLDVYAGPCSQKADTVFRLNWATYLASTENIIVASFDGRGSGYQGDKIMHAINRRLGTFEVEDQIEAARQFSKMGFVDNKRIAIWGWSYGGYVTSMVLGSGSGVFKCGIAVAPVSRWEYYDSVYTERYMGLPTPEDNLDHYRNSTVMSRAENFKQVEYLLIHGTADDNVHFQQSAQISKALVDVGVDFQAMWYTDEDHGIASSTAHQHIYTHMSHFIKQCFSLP

B1: 5826-13-R3A-D5 (scFv, part only; not given: linker and His-Flag tag, V domains shown, not shown: another chain or arm of the molecule; small tags and cut ends)
VH: EVKLVESGPGLVKPSQSLSLTCSVTGYFITGNYLAWIRKFPGNKMEWIGHIKSSGTTTYNPSLKSRVSITRDTSKNQFFLQLNSVTSEDTATYYCARHGHYVMDVWGQGASVTVSS
VL: DIVLTQSPVLAVSLGQRATISCRASQSVSTSTYNFMHWYQQKPGQQPRLLIYDASHLASSVPARFSGSGSGTDFTLTINPVQADDIATYYCQQSRELPLTFGSGTKLEIK
[1]
  MFI: 1740
  percentage of positive cells: 2.02%
[2]
  MFI: 581
  percentage of positive cells: 0%
[3]
  MFI: 1210
  percentage of positive cells: 5.02%
[4]
  MFI: 2730
  percentage of positive cells: 16.1%
[5]
  MFI: 4060
  percentage of positive cells: 10.7%
[6]
  MFI: 11500
  percentage of positive cells: 62.7%

B2: 5826-13-R4A-H5 (scFv, part only; not given: linker and His-Flag tag, V domains shown, not shown: another chain or arm of the molecule; large carriers; small tags and cut ends)
VH: EVQLQQSGAGLTKPGGSVKISCKVSGYTFTTYDIGWLKQRPGQALEWIGSINPGGGGTGYNEKFKGKATLTVDKSSSTAFMQLSSLTPEDTAVYYCARPLRRVLDYWGQGVLVTVSS
VL: DIQLTQSPSSLPASLGERVTISCRASQGISNKLNWYQQKPDGTIKPLIYYTSNLQSGVPSRFSGSGSGTDYSLTISSLEPEDFAMYYCQQDASFPPTFGGGTKLELK
[1]
  MFI: 3650
  percentage of positive cells: 11%
[2]
  MFI: 574
  percentage of positive cells: 0.01%
[3]
  MFI: 1940
  percentage of positive cells: 8.13%
[4]
  MFI: 10900
  percentage of positive cells: 61.9%
[5]
  MFI: 10100
  percentage of positive cells: 66.5%
[6]
  MFI: 16700
  percentage of positive cells: 79.5%

B3: 5738-10-R3A-D5 (scFv, part only; not given: linker and His-Flag tag, V domains shown, not shown: another chain or arm of the molecule; small tags and cut ends)
VH: EVQLQQSGAELAKPGSSVKISCKASGYTFTSYYISWIKQTTGQGLEYIGYINTGSGGTNYNEKFKGKATLTVDKSSSTAFMQLSSLTPDDSAVYYCARDKWVDWGQGVMVTVSS
VL: DILMTQSPSSMSVSLGDTVTITCRASQDVGIYVNWFQQKPGKPPRRMIYRATNLADGVPSRFSGSRSGSNYSLTIRSLESEDVADYHCLQYDEWPYTFGAGTKLELK
[7]
  MFI: 1250
  percentage of positive cells: 0.08%
[8]
  MFI: 1040
  percentage of positive cells: 4.81%
[9]
  MFI: 632
  percentage of positive cells: 0.07%
[10]
  MFI: 1380
  percentage of positive cells: 6.57%
[11]
  MFI: 1440
  percentage of positive cells: 0.06%
[12]
  MFI: 3500
  percentage of positive cells: 22.3%

B4: 5738-10-R4A-G11 (scFv, V domains shown)
VH: QVQLQQPRAELAKPGSSVKISCKASGYTFTNYSISWIKQTTGQGLEYIGYIYPGSGDTNYNEKFKGKATLTVDKSSSTAFMQLSSLTPDDSAVYYCARYFDHWGQGTLVTVSS
VL: B3 VL with P43S, N53T, N70D, R76S, W94Y, Y96P, A100S, L106I
notes: anti-hDEP1 scFv, rat 10 library, format VH/VL-6xHis-Flag
[13]
  binding result: binds

B5: 5738-10-R4A-E7 (scFv, V domains shown)
VH: QVQLKQSGVELAKPGSSVKISCKASGYTFTSDSISWIKQTTGQGLEYIGYIHPGSGVTNYNEKFKGKATLTVDKSSSTAFMQLSSLTPDDSAIYYCARYFDYWGQGVMVTVSS
VL: B3 VL with K39I, P43S, M47L, N70D, R76A, W94F, Y96P, A100S, L106I
notes: as for B4
[13]
  binding result: binds

B6: 5738-10-R4A-G4 (scFv, V domains shown)
VH: B5 VH with Q1E, K5Q, K65R
VL: B3 VL with L3V, P43S, N70D, R76A, W94F, Y96P, A100S, L106I
notes: as for B4
[13]
  binding result: binds

B7: 5738-10-R4A-F12 (scFv, V domains shown)
VH: B5 VH with Q1E, K5Q
VL: B3 VL with P43S, Y49H, N70D, R76S, W94Y, Y96P, A100S, L106I
notes: as for B4
[13]
  binding result: binds

B8: 5738-10-R4A-E9 (scFv, V domains shown)
VH: B5 VH with V9A, D32Y, S33Y
VL: B3 VL with L15Q, P43S, Y49H, N70D, R76T, W94Y, Y96P, A100S, K103N, L106I
notes: as for B4
[13]
  binding result: binds

B9: 5738-13-R2A-H4 (scFv, part only; not given: linker and His-Flag tag, V domains shown, not shown: another chain or arm of the molecule; small tags and cut ends)
VH: EVKLVESGGGLVQPGRSLKLSCAASGFTFSNYYMAWVRQAPTKGLEWVAYITNGFGSTYYRDSVKGRFTISRDNAKSTLYLQMDSLRSEDTATYYCSTVPLGAFVSWGQGTLVTVSS
VL: DIQMTQTPHSLSASLGETVSIECLASEGISNYLAWYQQKPGKSPQLLISYANPLHDGVPSRFSGSGSGTQFSLKIRNMQPEDEGVYYCQQGYKFPYTFGAGTKLELT
[7]
  MFI: 1310
  percentage of positive cells: 0.58%
[8]
  MFI: 891
  percentage of positive cells: 4.88%
[9]
  MFI: 980
  percentage of positive cells: 2.5%
[10]
  MFI: 2210
  percentage of positive cells: 12.5%
[11]
  MFI: 1480
  percentage of positive cells: 0.39%
[12]
  MFI: 5020
  percentage of positive cells: 40%
